For data set [1], the target named is T1, mature evolved transglutaminase (SEQ ID NO: 5) (Streptomyces mobaraensis, UniProt P81453, G359A/K167H/K227R/K228R/N358M/Q126S/Q150A/Q200L).
T1 construct: hexa-His tag with two amino acid linker (C); made in house; host or cells: E. coli BL21 (DE3)
Kind of data set: transglutaminase thermostability: activity after being held at 37-50 °C. The class given is biochemical. Also noted: key: The symbol, —, represents not determined, neutral, or reduced performance. The following applies: relative to wild-type pro-peptide; held at 37° C.-50° C. for 30 minutes, diluted 10-fold to 100-fold. Here is the method: The terms “stability” and “thermostability” are used interchangeably to refer to increased residual activity of mature transglutaminase after incubation at elevated temperatures. In some embodiments, a pro-peptide variant increases the stability of a mature transglutaminase compared to the wild type pro-peptide. Measurement of stability is depicted in Example 4.
It is believed that these pro-peptide variants confer thermal stability to mature transglutaminase.

In data set [2] the target is T2, evolved variant of mature Streptomyces mobaraensis transglutaminase, including a two amino acid linker and … (Streptomyces mobaraensis, UniProt P81453 79-407).
T2 chain: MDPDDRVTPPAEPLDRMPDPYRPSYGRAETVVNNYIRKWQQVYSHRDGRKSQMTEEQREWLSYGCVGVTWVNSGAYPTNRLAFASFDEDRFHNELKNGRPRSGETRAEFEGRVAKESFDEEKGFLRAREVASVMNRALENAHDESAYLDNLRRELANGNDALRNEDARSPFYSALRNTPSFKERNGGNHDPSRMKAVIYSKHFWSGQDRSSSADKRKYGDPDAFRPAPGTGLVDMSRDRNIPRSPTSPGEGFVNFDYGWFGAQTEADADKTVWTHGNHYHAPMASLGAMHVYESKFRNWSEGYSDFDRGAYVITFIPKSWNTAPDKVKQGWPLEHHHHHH
The experiment in a line: cell-based or functional assay.

These results are taken from patent publication US20250304927A1, “PRO-PEPTIDE VARIANTS FOR MODULATING ACTIVITY OF TRANSGLUTAMINASES” (CURIE CO. INC., priority 2022, published 2025).

A value given as a limit tells only on which side of the number the result lay.

Consider “D2I, E7S, D22Q: combination variant of pro-peptide SEQ ID NO: 2, Method B (MINGAGSETKSYAETYRLTADQVANINALNESAPAASSAGPSFRAP)”, for which the Thermostability result in data set [1] was “—”.
On the same count and under the same terms, the entry for “L18V, D21T: combination variant of pro-peptide SEQ ID NO: 2, Method B (MDNGAGEETKSYAETYRVTATDVANINALNESAPAASSAGPSFRAP)” is “—”; for “E7S, D21T, D22Q: combination variant of pro-peptide SEQ ID NO: 2, Method B (MDNGAGSETKSYAETYRLTATQVANINALNESAPAASSAGPSFRAP)” it is “—”; for “D21T, D22Q: combination variant of pro-peptide SEQ ID NO: 2, Method B (MDNGAGEETKSYAETYRLTATQVANINALNESAPAASSAGPSFRAP)” it is “—”.
Turning to “E7S, L18V, D21I: combination variant of pro-peptide SEQ ID NO: 2, Method B (MDNGAGSETKSYAETYRVTAIDVANINALNESAPAASSAGPSFRAP)”, the Thermostability result in data set [1] was “—”.
In the case of “E7S, D21T: combination variant of pro-peptide SEQ ID NO: 2, Method B (MDNGAGSETKSYAETYRLTATDVANINALNESAPAASSAGPSFRAP)”, the Thermostability result in data set [1] is “—”.
Same read-out and setting: the entry for “L18V, D21T, D22Q: combination variant of pro-peptide SEQ ID NO: 2, Method B (MDNGAGEETKSYAETYRVTATQVANINALNESAPAASSAGPSFRAP)” is “—”; for “E7S, L18V, D21R: combination variant of pro-peptide SEQ ID NO: 2, Method B (MDNGAGSETKSYAETYRVTARDVANINALNESAPAASSAGPSFRAP)” it is “—”; for “D2S, D21T, D22Q: combination variant of pro-peptide SEQ ID NO: 2, Method B (MSNGAGEETKSYAETYRLTATQVANINALNESAPAASSAGPSFRAP)” it is “—”.
Still for that read-out and setting: next, “D2S, E7S, D21I: combination variant of pro-peptide SEQ ID NO: 2, Method B (MSNGAGSETKSYAETYRLTAIDVANINALNESAPAASSAGPSFRAP)”: “—”.
The same measure, in the same setting: the entry for “E7S, D21R: combination variant of pro-peptide SEQ ID NO: 2, Method B (MDNGAGSETKSYAETYRLTARDVANINALNESAPAASSAGPSFRAP)” is “—”.
For “D2S, L18V, D22Q: combination variant of pro-peptide SEQ ID NO: 2, Method B (MSNGAGEETKSYAETYRVTADQVANINALNESAPAASSAGPSFRAP)”, the Thermostability entry in data set [1] is listed as “—”.
Turning to “D2S, E7S, D22Q: combination variant of pro-peptide SEQ ID NO: 2, Method B (MSNGAGSETKSYAETYRLTADQVANINALNESAPAASSAGPSFRAP)”, the Thermostability result in data set [1] was “—”.
With “D2I, D21T, D22Q: combination variant of pro-peptide SEQ ID NO: 2, Method B (MINGAGEETKSYAETYRLTATQVANINALNESAPAASSAGPSFRAP)”, the Thermostability entry in data set [1] is listed as “—”.
Same read-out and setting: next, “D2I, E7S, D21I: combination variant of pro-peptide SEQ ID NO: 2, Method B (MINGAGSETKSYAETYRLTAIDVANINALNESAPAASSAGPSFRAP)”: “—”.

B1: pro-peptide variant D2S, E7S, D21I (Method B) (peptide)
peptide: MSNGAGSETKSYAETYRLTAIDVANINALNESAPAASSAGPSFRAP
Regarding B1, the Inhibition in data set [2] was more than 1.2 fold.

B2: pro-peptide variant D2F (Method B) (peptide)
peptide: MFNGAGEETKSYAETYRLTADDVANINALNESAPAASSAGPSFRAP
B2: the Inhibition in data set [2] is more than 1.2 fold.

B3: pro-peptide variant D2S, D22Q (Method B) (peptide)
peptide: MSNGAGEETKSYAETYRLTADQVANINALNESAPAASSAGPSFRAP
In turn, B3 displayed an Inhibition in data set [2] of more than 2 fold.

B4: pro-peptide variant E7S, L18V, D21R (Method B) (peptide)
peptide: MDNGAGSETKSYAETYRVTARDVANINALNESAPAASSAGPSFRAP
For B4, the Inhibition in data set [2] was more than 2 fold.

B5: pro-peptide variant E7S, D21T, D22Q (Method B) (peptide)
peptide: MDNGAGSETKSYAETYRLTATQVANINALNESAPAASSAGPSFRAP
Regarding B5, the Inhibition in data set [2] was more than 1.2 fold.

B6: pro-peptide variant L18V (Method B) (peptide)
peptide: MDNGAGEETKSYAETYRVTADDVANINALNESAPAASSAGPSFRAP
B6 registered an Inhibition in data set [2] of more than 2 fold.

B7: pro-peptide variant E7S, D22Q (Method B) (peptide)
peptide: MDNGAGSETKSYAETYRLTADQVANINALNESAPAASSAGPSFRAP
As for B7, the Inhibition in data set [2] was more than 1.2 fold.

B8: pro-peptide variant D2S, D21T, D22Q (Method B) (peptide)
peptide: MSNGAGEETKSYAETYRLTATQVANINALNESAPAASSAGPSFRAP
As for B8, in data set [2], the Inhibition is more than 1.2 fold.

B9: pro-peptide variant D2S, L18V, D22Q (Method B) (peptide)
peptide: MSNGAGEETKSYAETYRVTADQVANINALNESAPAASSAGPSFRAP
In data set [2], B9 had an Inhibition of more than 2 fold.

B10: pro-peptide variant L18V, D21T, D22Q (Method B) (peptide)
peptide: MDNGAGEETKSYAETYRVTATQVANINALNESAPAASSAGPSFRAP
In the case of B10, the Inhibition in data set [2] is more than 2 fold.

B11: pro-peptide variant E7S, D21T (Method B) (peptide)
peptide: MDNGAGSETKSYAETYRLTATDVANINALNESAPAASSAGPSFRAP
As to B11, the Inhibition in data set [2] was more than 1.2 fold.

B12: pro-peptide variant D2I, E7S, L18V, D21R (Method B) (peptide)
peptide: MINGAGSETKSYAETYRVTARDVANINALNESAPAASSAGPSFRAP
In data set [2], B12 displayed an Inhibition of more than 2 fold.

B13: pro-peptide variant D2I, D22Q (Method B) (peptide)
peptide: MINGAGEETKSYAETYRLTADQVANINALNESAPAASSAGPSFRAP
Molecule B13 displayed an Inhibition in data set [2] of more than 1.2 fold.

B14: pro-peptide variant D2S, E7S, D21T, D22Q (Method B) (peptide)
peptide: MSNGAGSETKSYAETYRLTATQVANINALNESAPAASSAGPSFRAP
As for B14, the Inhibition in data set [2] was more than 2 fold.

B15: pro-peptide variant D2I, D21T, D22Q (Method B) (peptide)
peptide: MINGAGEETKSYAETYRLTATQVANINALNESAPAASSAGPSFRAP
For B15, the Inhibition in data set [2] is more than 1.2 fold.

B16: pro-peptide variant E7S, D21R (Method B) (peptide)
peptide: MDNGAGSETKSYAETYRLTARDVANINALNESAPAASSAGPSFRAP
Take B16: in data set [2], the Inhibition was more than 1.2 fold.

B17: pro-peptide variant D21T, D22Q (Method B) (peptide)
peptide: MDNGAGEETKSYAETYRLTATQVANINALNESAPAASSAGPSFRAP
With B17, in data set [2], the Inhibition was more than 1.2 fold.

B18: pro-peptide variant L18V, D21T (Method B) (peptide)
peptide: MDNGAGEETKSYAETYRVTATDVANINALNESAPAASSAGPSFRAP
Take B18: the Inhibition in data set [2] was more than 2 fold.

B19: pro-peptide variant D2I, E7S, D21I (Method B) (peptide)
peptide: MINGAGSETKSYAETYRLTAIDVANINALNESAPAASSAGPSFRAP
Molecule B19 had an Inhibition in data set [2] of more than 1.2 fold.

B20: pro-peptide variant E7S, L18V, D21I (Method B) (peptide)
peptide: MDNGAGSETKSYAETYRVTAIDVANINALNESAPAASSAGPSFRAP
Take B20: the Inhibition in data set [2] is more than 2 fold.
